Laboratory results from patent publication US20180243244A1.
Where two headings read alike, the source gives them in different places. No end group written: not given here.

How the values were obtained:
p62-D3-GST, Q13501 [1] = molecular target: p62-D3-GST, Q13501
p62-D3-GST, Q13501 [2] = molecular target: p62-D3-GST, Q13501; remark: listed apart in the source
[3] = molecular target: p62 (Homo sapiens (Human)), Q13501; experiment: X-peptide pull down of in vitro transcribed and translated p62, Western blot
p62-D3-GST, Q13501 [4] = experiment: SPR (Biacore), legend of FIG. 6

Binder | Kd (p62-D3-GST, Q13501 [1]) | koff (p62-D3-GST, Q13501 [1]) | kon (p62-D3-GST, Q13501 [1]) | Kd (p62-D3-GST, Q13501 [2]) | efficiency of precipitating p62 [3] | fold binding force against N-recognins containing a URB box (p62-D3-GST, Q13501 [2]) | Kd (p62-D3-GST, Q13501 [4])
FIFSTIEGRTY (not fully specified) [F11 peptide (biotin-labeled X-peptide with N-terminal Phe)] | 3440 nM | 0.0019 s⁻¹ | 550 M⁻¹ s⁻¹ | 3400 nM | 5% |  | 
RIFSTIEGRTYK (not fully specified) [R11 peptide (biotin-labeled X-peptide with N-terminal Arg)] | 44 nM | 0.0005 s⁻¹ | 12300 M⁻¹ s⁻¹ |  | > 40% | 50 times | 40 nM
